The data set deals with the molecule itself. Put plainly: nES GEMMA (gas-phase electrophoresis, nES DMA); BMntR alone at different concentrations, electrosprayed from 40 mM ammonium acetate pH 8.4; EM diameter 5.9 nm turned into a molecular weight by an EM diameter/MW correlation (34.6 kDa against 33.8 kDa theoretical for the dimer).

B1: MntR protein from B. subtilis (natural protein, Bacillus subtilis, UniProt P54512 1-142, looked up)
chain: MTTPSMEDYIEQIYMLIEEKGYARVSDIAEALAVHPSSVTKMVQKLDKDEYLIYEKYRGLVLTSKGKKIGKRLVYRHELLEQFLRIIGVDEEKIYNDVEGIEHHLSWNSIDRIGDLVQYFEEDDARKKDLKSIQKKTEHHNQ
notes: Manganese-dependent transcription factor MntR of Bacillus subtilis, UniProt P54512; Theoretical mass of the dimer printed as 33.8 kDa; also called BMntR; B. subtilis MntR protein; source: purified as before [3]
With B1, the stoichiometry N (as a rule, the number of molecules, sites or subunits per partner or assembly) was 2.

The values above are taken from publication PMC11416365, “Exploring the manganese-dependent interaction between a transcription factor and its corresponding DNA: insights from gas-phase electrophoresis on a nES GEMMA instrument” (Analytical and Bioanalytical Chemistry, 2024).
